# Data reported in IntAct's records for PubMed 11134025.
# B1: Protein kinase C-like 3 (Caenorhabditis elegans), Q19266 (parent)
# chain: MSSPTSLEEDGDIKLKTRFQGQVVVLYARPPLILDDFFALLKDACKQHKKQDITVKWIDEDGDPISIDSQMELDEAVRCLNSSQEAELNIHVFVGKPELPGLPCQGEDKTVYRRGARRWKKIYLYNGHRFQAKRLNRRIQCFICHDYIWGIGRQGFRCVDCRLCVHKKCHRHVRTHCGQALQGPNIIPMAPASGSLKGARSNTSSSTTRSGGGIDNGAFHEHEIESPGSTSHDASRAMNGNGSSKWAVSLNDFRLLTVIGRGSYAKVVQAEHVSTRQIYAIKIIKKEMFNEDEDIDWVQTEKSVFEAASNYPFLVGLHSCFQTESRLFFVIEFVPGGDLMFHMQQQRKLPEEHARFYSGEIILALHFLHSRGIIYRDLKLDNVLIDAEGHIKLTDYGMCKENIKDGDLTSTFCGTPNYIAPEILRGDEYGFSVDWWALGVLMFEMMAGRSPFDIVGMQNSEENTEDYLFQIILERQIRIPRSLSVRASGILKGFLNKDPTERLGCKLDINEGLRDMKEHQFFRGFIDWEALEQKAVAPPYHPAVESDRDLTHFDHQFTDELPQLSPDNPDVIARIDQSEFDGFEYVNPLQMSREDSV
# partner: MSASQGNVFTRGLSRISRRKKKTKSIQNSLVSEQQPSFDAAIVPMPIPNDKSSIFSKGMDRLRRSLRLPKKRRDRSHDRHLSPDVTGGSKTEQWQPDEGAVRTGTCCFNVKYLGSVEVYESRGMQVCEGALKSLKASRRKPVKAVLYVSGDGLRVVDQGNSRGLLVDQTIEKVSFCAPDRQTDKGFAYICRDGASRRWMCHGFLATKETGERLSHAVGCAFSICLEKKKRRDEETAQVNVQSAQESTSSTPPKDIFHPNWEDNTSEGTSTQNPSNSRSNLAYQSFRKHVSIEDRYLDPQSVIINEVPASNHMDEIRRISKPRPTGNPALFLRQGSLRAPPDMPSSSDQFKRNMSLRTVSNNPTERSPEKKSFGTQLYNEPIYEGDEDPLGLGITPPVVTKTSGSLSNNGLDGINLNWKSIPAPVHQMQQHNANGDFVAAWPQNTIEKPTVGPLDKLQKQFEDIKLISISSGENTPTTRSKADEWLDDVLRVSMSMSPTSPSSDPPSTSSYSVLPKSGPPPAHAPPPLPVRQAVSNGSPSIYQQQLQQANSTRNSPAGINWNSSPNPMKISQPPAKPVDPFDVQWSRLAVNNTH
# Variants of: B1
# Conditions: with num-1, Q9XTY6-1
row,Variant,effect of a mutation on the interaction
1,I214A,decreasing interaction
2,F219A,decreasing interaction
3,N216A,decreasing interaction
